Assay results as given in patent US11780903B2, “Peptide suppressing binding of CTLA4 to B7 proteins, and use thereof” (TOAGOSEI CO., LTD., priority 2020, dated 2023).
No end group written: not given here.

Columns and labels:
binding of CTLA4 to B7-2 = biological target: T1, binding of CTLA4 to B7-2 (Homo sapiens, UniProt P16410); assay: Test for evaluating binding inhibitory properties between CTLA4 and B7-2 (BPS #79658 inhibitor screening assay kit, chemiluminescence); conditions: peptide concentration 5 μM and/or 10 μM as in Table 2; plate-coated CTLA4, biotin-labeled B7-2; n=2 wells; versus no peptide added
T1 construct: purchased BPS Bioscience BPS #79658
T1 sequence (P16410 36-161 limits assumed): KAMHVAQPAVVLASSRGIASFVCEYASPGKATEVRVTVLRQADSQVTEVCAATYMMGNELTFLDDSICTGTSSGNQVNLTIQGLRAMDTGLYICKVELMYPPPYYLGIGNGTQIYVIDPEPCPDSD
Procedure: The binding inhibitory properties between CTLA4 and B7-2 were evaluated for the 6 kinds of sample peptides synthesized in the above-described Test Example 1.
In this test, Test Examples 3-1 to 3-9 were set according to the kind of sample peptide used and the peptide concentration as shown in Table 2 mentioned above. In addition, a peptide-free group was set as Test Example 3-10. The tests of the above-described 10 categories in total were carried out as follows. The numbers “1 to 10” shown in the “No.” column of Table 2 represent “Test Examples 3-1 to 3-10” in Test Example 3. In addition, the number (n) of test wells in each of the above-described examples was set to 2.
In Test Example 3-1, the following kit currently available on the market was used. CTLA4 B7-2 (Biotinylated) inhibitor screening assay kit (BPS #79658)
The operation for this test example was based on “ASSAY PROTOCOL” described in the data sheet of the above-described kit.
Test Example 3-1 was performed using the same materials and processes as those of Test Example 2-1 except that the above-described kit was used.

binding of CTLA4 to B7-1 = biological target: T2, binding of CTLA4 to B7-1 (Homo sapiens, UniProt P16410); assay: Test for evaluating binding inhibitory properties between CTLA4 and B7-1 (BPS #72009 inhibitor screening assay kit, chemiluminescence); conditions: peptide concentration 5 μM and/or 10 μM as in Table 2; plate-coated CTLA4, biotin-labeled B7-1; n=2 wells; versus no peptide added
T2 construct: purchased BPS Bioscience BPS #72009
T2 sequence (P16410 36-161 limits assumed): T1 sequence (P16410 36-161 limits assumed)
Procedure: The binding inhibitory properties between CTLA4 and B7-1 were evaluated for the 6 kinds of sample peptides synthesized in the above-described Test Example 1.
In this test, Test Examples 2-1 to 2-9 were set according to the kinds of sample peptide used and the peptide concentration as shown in Table 2 below. In addition, a peptide-free group was set as Test Example 2-10. The tests of the above-described 10 categories in total were carried out as follows. The numbers “1 to 10” shown in the “No.” column of Table 2 represent “Test Examples 2-1 to 2-10” in Test Example 2. In addition, the number (n) of test wells in each of the above-described examples was set to 2.
In Test Example 2-1, the following kit currently available on the market was used. CTLA4 B7-1 (Biotinylated) inhibitor screening assay kit (manufactured by BPS Bioscience, BPS #72009)
The operation for this test example was based on “ASSAY PROTOCOL” described in the data sheet of the above-described kit. A brief procedure is shown below.
First, each well of a 96-well plate was coated with CTLA4. Specifically, a CTLA4 solution (2 μg/mL) was dispensed into each well of the 96-well plate, and the plate was incubated overnight at 4° C.
Subsequently, the CTLA4 solution was removed, and each well was washed.
Subsequently, blocking was performed. Specifically, a blocking buffer contained in the kit was dispensed into each well, and the plate was incubated for 1 hour at room temperature.
Subsequently, a solution of the Sample 1 was dispensed into each well, and the plate was incubated for 1 hour at room temperature.
Subsequently, a biotin-labeled B7-1 solution (1.25 ng/mL) was dispensed into each well of the 96-well plate, and the plate was incubated for 2 hours at room temperature.
After the above-described incubation, the peptide solution was removed, and each well was washed. […]
Subsequently, the blocking buffer was removed, a chemiluminescent reagent contained in the above-described kit was dispensed into each well, and the chemiluminescence intensity in each well was measured with a luminometer. […]

Row | Sequence | suppression of binding of CTLA4 to B7-2 (chemiluminescence intensity, FIG. 2) (binding of CTLA4 to B7-2) | suppression of binding of CTLA4 to B7-1 (chemiluminescence intensity, FIG. 1) (binding of CTLA4 to B7-1)
1 | KKRTLRKNDR KKR (KKRTLRKNDRKKR-NH2) [Sample 6] | not suppressed | not suppressed
2 | MQIPQAPWPVVWAVLQLGWR (MQIPQAPWPVVWAVLQLGWR-NH2) [Sample 4] |  | no action of suppressing the binding of CTLA4 to B7-1 was observed
3 | MQIPQAPWPVVWAVLQLGWRMQIPQAPWRPVVWAVLQLGW [Sample 5] |  | no action of suppressing the binding of CTLA4 to B7-1 was observed
